Source: US5847088A, “Antibodies specific for platelet-activating factor acetylhydrolase” (ICOS Corporation, priority 1995, dated 1998)

Experiments:
PAF-induced pleurisy = PAF-induced pleurisy (Evans blue vascular leakage); assay type: in vivo, rat; conditions: 300 μl PAF-AH (1500 μmol/ml/hour) IV 15 minutes before 2.0 nmol PAF, 1 hour
Protocol: Fifteen minutes later the rats received an 100 μl injection of PAF (2.0 nmol) into the pleural space. One hour following PAF challenge, rats were sacrificed and the pleural fluid was collected by rinsing the cavity with 3 ml heparinized phosphate buffered saline. The degree of vascular leak was determined by the quantity of Evans blue dye in the pleural space which was quantitated by absorbance at 620 nm.

PAF mediated lung injury = experiment: Guinea pig model of ARDS (PAF infusion, BAL protein); assay type: in vivo
Protocol: Based on the above observations, an ARDS model in guinea pigs was developed. A cannula is placed into the jugular vein of anaesthetized male Hartly guinea pigs (approximately 350-400 grams) and PAF diluted in a 500 μl volume of phosphate buffered saline with 0.25% bovine serum albumin as a carrier (PBS-BSA) is infused over a 15 minute period of time at a total dosage ranging from 100-400 ng/kg. At various intervals following PAF infusion, animals are sacrificed and lung tissue is collected. In guinea pigs infused with PAF, dose dependent lung damage and inflammation is clearly evident by 15 minutes and continues to be present at 60 minutes. Neutrophils and red blood cells are present in the alveolar spaces of PAF treated guinea pigs but absent in control or sham infused animals. Evidence of epithelial cell damage is also evident and reminiscent of hyaline membrane formation in human ARDS patients.
Groups of guinea pigs were pretreated with either PAF-AH (2000 units in 500 μl) or 500 μl of the PAF-AH buffer only. Fifteen minutes later these guinea pigs were infused with 400 ng/kg PAF in a 500 μl volume, infused over a 15 minute period. In addition, a sham group of guinea pigs was infused with 500 μl of PBS-BSA. […] To determine protein concentration in the BAL, samples were diluted 1:10 in saline and the OD 280 was determined.

zymosan A-induced edema = experiment: Rat foot edema model, zymosan A-induced; assay type: in vivo; conditions: 2000 U IV 15 minutes before zymosan A, 2 hours
Protocol: Six to eight-week-old female Long Evans rats (Charles River, Wilmington, Mass.), weighing 180-200 grams, were used for all experiments. Prior to experimental manipulations, animals were anesthetized with a mixture of the anesthetics Ketaset (Fort Dodge Laboratories, Fort Dodge, Iowa), Rompun (Miles, Shawnee Mission, Kans.), and Ace Promazine (Aveco, Fort Dodge, Iowa) administered subcutaneously at approximately 2.5 mg Ketaset, 1.6 mg Rompun, 0.2 mg Ace Promazine per animal per dose. Edema was induced in the foot by administration of either PAF or zymosan as follows. […] Animals received 50 μl PAF (final dose of 0.96 nmoles) subcutaneously between the hind foot pads, and edema was assessed after 1 hour and again after 2 hours in some experiments. […] Animals received 50 μl of zymosan (final dose of 500 μg) subcutaneously between the hind foot pads and edema was assessed after 2 hours.
Edema was quantitated by measuring the foot volume immediately prior to administration of PAF or zymosan and at indicated time point post-challenge with PAF or zymosan. Edema is expressed as the increase in foot volume in milliliters. […]
Rats (N=4 per group) were pretreated IV with either PAF-AH (2000 U in 300 μl carrier) or carrier alone. Fifteen minutes after pretreatment, groups received either PAF or zymosan A, and foot volume was assessed after 1 and 2 hours, respectively.

[1] = Plasma PAF-AH activity in rats of the NEC experiments; assay type: in vivo, rat
Protocol: The plasma PAF-AH activities were also determined in the rats utilized in the experiment described above. PAF-AH activity was determined as follows. Prior to the tail vein injection, blood samples were obtained. Subsequently blood samples were obtained from the vena cava just prior to the injection of PAF and at the time of sacrifice. Approximately 50 μl of blood was collected in heparinized capillaries. The plasma was obtained following centrifugation (980×g for 5 minutes). The enzyme was assayed as previously described by Yasuda and Johnston, Endocrinology, 130:708-716 (1992).
In order to determine if the protection against NEC in rats was dose dependent, animals were treated with increasing doses of PAF-AH 15 minutes prior to PAF administration. Initially, PAF-AH, ranging from 25.5 to 25,500 units were administered into the tail vein of rats. PAF (0.4 μg in 0.2 ml of BSA-saline) was subsequently injected into the abdominal aorta 15 minutes after the administration of PAF-AH. The small intestine was removed and examined for NEC development 2 hours after PAF administration. Plasma PAF-AH activity was determined prior to the exogenous administration of the enzyme, and 15 minutes and 21/4 hours after PAF-AH administration. The results are the mean of 2-5 animals in each group.

[2] = Pharmacokinetics of PAF-AH in rat circulation (double mAb capture ELISA); assay type: in vivo; conditions: 2000 U IV, mean ± SEM
Protocol: Four rats received 2000 U of PAF-AH by IV injection in a 300 μl volume. Plasma was collected at various time points and stored at 4° C. and plasma concentrations of PAF-AH were determined by ELISA using a double mAb capture assay. In brief, monoclonal antibody 90G11D (Example 13) was diluted in 50 mM carbonate buffer pH 9.6 at 100 ng/ml and immobilized on Immulon 4 ELISA plates overnight at 4° C. After extensive washing with PBS containing 0.05% Tween 20, the plates were blocked for 1 hour at room temperature with 0.5% fish skin gelatin (Sigma) diluted in PBS. Serum samples diluted in PBS with 15 mM CHAPS were added in duplicate to the washed ELISA plate and incubated for 1 hour at room temperature. After washing, a biotin conjugate of monoclonal antibody 90F2D (Example 13) was added to the wells at a concentration of 5 μg/ml diluted in PBS and incubated for 1 hour at room temperature. After washing, 50 μl of a 1:1000 dilution of ExtraAvidin (Sigma) was added to the wells and incubated for 1 hour at room temperature. After washing, wells were developed using OPD as a substrate and quantitated. Enzyme activity was then calculated from a standard curve. […]

[3] = 25,500 units IV, 21/4 hours after injection

B1: PAF-AH: Recombinant human plasma platelet-activating factor acetylhydrolase (beginning at Ile42 of SEQ ID NO:8) expressed in E. coli (protein, UniProt Q13093 22-441, looked up)
Platelet-activating factor …: FDWQYINPVAHMKSSAWVNKIQVLMAAASFGQTKIPRGNGPYSVGCTDLMFDHTNKGTFLRLYYPSQDNDRLDTLWIPNKEYFWGLSKFLGTHWLMGNILRLLFGSMTTPANWNSPLRPGEKYPLVVFSHGLGAFRTLYSAIGIDLASHGFIVAAVEHRDRSASATYYFKDQSAAEIGDKSWLYLRTLKQEEETHIRNEQVRQRAKECSQALSLILDIDHGKPVKNALDLKFDMEQLKDSIDREKIAVIGHSFGGATVIQTLSEDQRFRCGIALDAWMFPLGDEVYSRIPQPLFFINSEYFQYPANIIKMKKCYSPDKERKMITIRGSVHQNFADFTFATGKIIGHMLKLKGDIDSNVAIDLSNKASLAFLQKHLGLHKDFDQWDCLIEGDDENLIPGTNINTTNQHIMLQNSSGIEKYN
reduction in inflammation (vascular leakage, Evans blue in pleural space) (PAF-induced pleurisy): > 80% | BAL fluid protein concentration (PAF mediated lung injury; 2000 units 15 minutes before 400 ng/kg PAF infusion): 1.13 ± 0.25 mg/mL | protection against PAF mediated lung injury (PAF mediated lung injury; 2000 units pretreatment): completely protect | effect on zymosan induced edema (zymosan A-induced edema): failed to block | plasma PAF-AH activity after 15 minutes ([1]; 2040 units IV): 363 units per ml of plasma | increase of plasma PAF-AH activity over basal levels ([1]; 2040 units IV, 15 minutes): five-fold increase over basal levels | plasma PAF-AH activity at time of sacrifice, groups 2 and 4 ([1]; 25,500 units IV, 21/4 hours after PAF-AH injection): 1855±257 units | plasma PAF-AH activity at time of sacrifice, Group 2 [1, 3]: 1771±308 | plasma PAF-AH activity at time of sacrifice, Group 4 [1, 3]: 1939±478 | plasma PAF-AH activity after 15 minutes, group 2 ([1]; 25,500 units IV, BSA-saline group): 2249±341 units (1 unit equals 1 nmoles×min^-1 ×ml^-1 plasma) | plasma PAF-AH activity after 15 minutes, group 4 ([1]; 25,500 units IV, PAF group): 2494±623 units (1 unit equals 1 nmoles×min^-1 ×ml^-1 plasma) | resultant plasma enzyme activity ([1]; less than 1,020 total units administered): ≤ 160 | plasma enzyme level at one hour [2]: 374 U/ml
